Experimental data: article PMC11711466

Experiments:
[1] = molecular target: budding yeast MCM2-7 complex (budding yeast) (UniProt P29469); test: negative-stain EM (2D class averages); eluates of pre-RC reactions with ATP washed with 300 mM NaCl (high salt); complexes on DNA
[2] = molecular target: hORC1-5;hORC6;hCDC6;hCDT1deltaN;hMCM2-7 (human;human;human;human;human) (UniProt Q13415+Q13416+Q9UBD5+O43929+O43913+Q9Y5N6+Q99741+Q9H211+P49736+P25205+P33991+P33992+Q14566+P33993); test: bead pull-down (pre-RC assay); conditions: ATP, high-salt wash; CDT1 form inferred; 25 mM HEPES-KOH pH 7.5, 250 mM KGlu, 1 mM DTT, 4 mM MgOAc, 0.1% Triton X-100, 1 mM ATP or ATPgS, 30 C; high-salt wash adds 300 mM NaCl; in-solution: …; scale: fold higher hMCM2-7 signal than without hORC6
[3] = molecular target: hORC1-5;hCDC6;hCDT1deltaN;hMCM2-7 (human;human;human;human) (UniProt Q13415+Q13416+Q9UBD5+O43929+O43913+Q99741+Q9H211+P49736+P25205+P33991+P33992+Q14566+P33993); test: bead pull-down (pre-RC assay); conditions: ATP, high-salt wash, no hORC6; CDT1 form inferred; 25 mM HEPES-KOH pH 7.5, 250 mM KGlu, 1 mM DTT, 4 mM MgOAc, 0.1% Triton X-100, 1 mM ATP or ATPgS, 30 C; high-salt wash adds 300 mM NaCl; in-solution: …; scale: fold reduction of hMCM2-7 signal vs with hORC6

Substance	percent of particles in double-hexamer class averages [1] [%]	binding signal [2]	binding signal [3]
budding yeast MCM2-7 complex, P29469 1-868; P24279 1-971; P30665 1-933; P29496 1-775; P53091 1-1017; P38132 1-845	91	–	–
lamin B2 origin DNA for pre-RC / hOCCM (2 or 3 kbp)	–	1.8	1.8
